According to US20210070819A1 (INSERM INSTITUT NATIONAL DE LA SANT ET DE LA RECHERCHE M …, published 2021):

B1: SCG5-009193-201 (peptide)
peptide: RLKPSLVGK
B2: SCG5186-195 (peptide)
peptide: YLQGQRLDNV
B3: SCG5-009186-194 (peptide)
peptide: FLSGAVNRL
notes: also called SCG-009186-194

Legend:
[1] = target: T1, biotin-tagged HLA-A*03:01 monomers (immunAware) (human, biotin tag); assay: flow cytometry bead assay: biotinylated HLA-A*03:01 monomer folded with peptide, captured on streptavidin beads, detected with anti-β2-microglobulin BBM.1; 1.2 nM complex (data not shown)
T1 construct: Bought monomers folded around the test peptide; also called HLA-A3; A3

[2] = target: T2, HLA-A*02:01 (human); assay: experimental HLA-A2 peptide binding assay, format not described (data not shown)
T2 construct: also called HLA-A2; A2

Row | Binder | binding result [1] | binding result [2]
1 | B1 | binds | 
2 | B2 |  | binds
3 | B3 |  | binds
